The source of these data is US20160152728A1 (AFFEMED, published 2016).

For experiment [1], the target named is T1, EGFRvIII expressed on cells (CHO^EGFRvIII, F98^EGFRvIII) (UniProt P00533 25-1210).
T1 construct: whole, on cells; the vIII deletion must be applied; also called deletion mutant EGFRvIII
Description: cell-based or functional assay.

Experiment [2] concerns the target EGFRvIII-Fc fusion antigen (human, UniProt P00533 25-645). In words: ELISA on coated EGFRvIII-Fc; TandAb detected with Protein L-HRP, Abs(450nm) [EGFRvIII binding]. Background: In an ELISA, binding on a coated surface is turned into a signal by an enzyme label.
The target of experiment [3] is CD3γε recombinant antigen (UniProt P09693). Description: ELISA on coated CD3γε antigen; TandAb detected with Protein L-HRP, Abs(450nm) [CD3γε binding].
Experiment [4] deals with T2, wild type EGFR expressed on cells (CHO^EGFR, F98^EGFR) (human, UniProt P00533 25-1210).
T2 construct: whole, on cells; also called native EGFR; EGFRwt
In words: flow cytometry on F98^EGFR cells; scFv detected with anti-His followed by FITC-conj. goat anti-mouse IgG. A general note: A flow cytometer gives signals particle by particle.
Description: (§1) After a second washing cycle, the cells were incubated with 0.1 mL of 15 μg/mL FITC-conjugated goat anti-mouse IgG antibodies under the same conditions as before. As a control, cells were incubated with the anti-His IgG 13/45/31 followed by the FITC-conjugated goat anti-mouse IgG antibodies without scFvs. The cells were then washed again and resuspended in 0.2 mL of FACS buffer containing 2 μg/mL propidium iodide in order to exclude dead cells. The fluorescence of 1×10⁴ living cells was measured using a Beckman-Coulter FC500 MPL flow cytometer using the MXP software (Beckman-Coulter, Krefeld, Germany) or a Millipore Guava EasyCyte flow cytometer using the Incyte software (Merck Millipore, Schwalbach, Germany). Mean fluorescence intensities of the cell samples were calculated using CXP software (Beckman-Coulter, Krefeld, Germany) or Incyte software (Merck Millipore, Schwalbach, Germany).
(§2) In case of analysis with Beckman-Coulter FC500 MPL flow cytometer 0.5×10⁶ cells/staining and in case of Millipore Guava EasyCyte flow cytometer only 0.25×10⁶ cells/staining were used.

Experiment [5] addresses T1, EGFRvIII expressed on cells …. Description: flow cytometry on F98^EGFRvIII cells; scFv detected with anti-His followed by FITC-conj. goat anti-mouse IgG, mean fluorescence intensity.
Description: as §1, §2
For experiment [6] the target is unchanged. In words: flow cytometry on CHO^EGFRvIII cells; scFv detected with anti-His followed by FITC-conj. goat anti-mouse IgG, mean fluorescence intensity.
Description: as §1, §2
Experiment [7] deals with EGFRvIII-Fc fusion antigen (human) (UniProt P00533). In words: ELISA on coated EGFRvIII-Fc; TandAb detected with Protein L-HRP, Abs(450nm) [EGFRvIII binding].

Sequence of CD3γε recombinant antigen (P09693 23-116, chain 1 of 2): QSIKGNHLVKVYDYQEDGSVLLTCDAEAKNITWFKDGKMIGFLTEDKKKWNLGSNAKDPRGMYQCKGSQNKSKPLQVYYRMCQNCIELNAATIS
Sequence of CD3γε recombinant antigen (P07766 23-126, chain 2 of 2, further chain): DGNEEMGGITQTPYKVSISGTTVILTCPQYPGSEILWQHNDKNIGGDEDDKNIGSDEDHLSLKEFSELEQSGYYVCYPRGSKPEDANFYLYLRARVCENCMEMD

B1: EGFRvIII/CD3 TandAb with EGFRvIII binding domain ABC469, domain order (i) VL^CD3(v64)-VH^EGFRvIII-VL^EGFRvIII-VH^CD3(v64) (bispecific antibody, part only; not given: CD3 v64 domain and linkers, not shown: small tags and cut ends)
chain, part: EVQLVQSGAEVKKPGESLKISCKGSGYSFNSYWIGWVRQMPGKGLEWMGIIYPGDSDTRYSPSFQGQVTISADKSISTAYLQWSSLKASDTAMYYCARLGSSWTNDAFDIWGQGTLVTVSSLTQPPSYESVSVSPGQTARITCSGDTLPKQYAYWYQQKPGQAPVLVIYKDSERPSGIPERFSGSSSGTTVTLTISGVQAEDEADYYCQSVDVSGTYVVFGGGTKLTVL
The term EC50 (read off the curve) denotes the midpoint of the concentration-response curve. As to B1, in experiment [1], the Cytotoxic potency EC50 worked out at 11 nM and the cytotoxicity improvement factor relative to parental TandAb was determined as 2.5 fold. In addition, in experiment [2], the concentration for a half-maximal effect (EC50 (read off the curve)) was 1 nM.

B2: EGFRvIII/CD3 TandAb with EGFRvIII binding domain ABC469, domain order (iv) VH^EGFRvIII-VL^CD3-VH^CD3-VL^EGFRvIII (bispecific antibody, part only; not given: CD3 domain and linkers, not shown: small tags and cut ends)
chain, part: EVQLVQSGAEVKKPGESLKISCKGSGYSFNSYWIGWVRQMPGKGLEWMGIIYPGDSDTRYSPSFQGQVTISADKSISTAYLQWSSLKASDTAMYYCARLGSSWTNDAFDIWGQGTLVTVSSLTQPPSYESVSVSPGQTARITCSGDTLPKQYAYWYQQKPGQAPVLVIYKDSERPSGIPERFSGSSSGTTVTLTISGVQAEDEADYYCQSVDVSGTYVVFGGGTKLTVL
On to B2, for which the EC50 (read off the curve) in experiment [3] was determined as 7 nM. Also, in experiment [1], the Cytotoxic potency EC50 came to 6.5 nM and the cytotoxicity improvement factor relative to parental TandAb came out at 33.3 fold. In experiment [2], the EC50 (read off the curve) amounted to 0.6 nM.

B3: Li3G30 scFv (parental) (scFv, V domains shown)
VH: EVQLVQSGAEVKKPGESLKISCKGSGYSFTSYWIGWVRQMPGKGLEWMGIIYPGDSDTRYSPSFQGQVTISADKSISTAYLQWSSLKASDTAMYYCARLGSSWTNDAFDIWGQGTMVTVSS
VL: SYELTQPPSVSVSPGQTARITCSGDALPKQYAYWYQQKPGQAPVLVIYKDSERPSGIPERFSGSSSGTTVTLTISGVQAEDEADYYCQSADSSGTPLIVFGTGTKLTVL
notes: One-chain scFv, His-tagged; also called parental scFv; starting clone Li3G30
Regarding B3, in experiment [4], the binding result is “no binding (tested: about 3300 nM)”. The “EC50 (read off the curve)” value is approximately 6 nM in experiment [5] and approximately 5 nM in experiment [6].

B4: EGFRvIII/CD3 TandAb with EGFRvIII binding domain ABC471, domain order (i) VL^CD3(v64)-VH^EGFRvIII-VL^EGFRvIII-VH^CD3(v64) (bispecific antibody, part only; not given: CD3 v64 domain and linkers, not shown: small tags and cut ends)
chain, part: EVQLVQSGAEVKKPGESLKISCKGSGYSFNSYWIGWVRQMPGKGLEWMGIIYPGDSANRYSPSFQGQVTISADKSISTAYLQWSSLKASDTAMYYCARLGSSWTNDAFDIWGQGTLVTVSSSYELTQPPSVSVSPGQTARITCSGDYLPKQYAYWYQQKPGQAPVLVIYKDTERPSGIPERFSGSSSGTTVTLTISGVQAEDEADYYCQSVDSSHPSVVFGGGTKLTVL
Consider B4, for which, in experiment [1], the Cytotoxic potency EC50 worked out at 1.5 nM and the cytotoxicity improvement factor relative to parental TandAb came out at 18.2 fold. Moreover, the EC50 (read off the curve) in experiment [7] turned out to be 0.8 nM.

B5: EGFRvIII/CD3 TandAb with EGFRvIII binding domain ABC470, domain order (iv) VH^EGFRvIII-VL^CD3-VH^CD3-VL^EGFRvIII (bispecific antibody, part only; not given: CD3 domain and linkers, not shown: small tags and cut ends)
chain, part: EVQLVQSGAEVKKPGESLKISCKGSGYSFNSYWIGWVRQMPGKGLEWMGIIYPGDSDTRYSPSFQGQVTISADKSISTAYLQWSSLKASDTAMYYCARLGSSWTNDAFDIWGQGTLVTVSSSYELTQPPSVSVSPGQTARITCSGDALDKQYAYWYQQKPGQAPVLVIYKDSERPSGIPERFSGSSSGTTVTLTISGVQAEDEADYYCQSVDSSETYVVFGGGTKLTVL
In the case of B5, in experiment [1], the Cytotoxic potency EC50 amounted to 3.8 nM and the cytotoxicity improvement factor relative to parental TandAb is 56.9 fold. Further, in experiment [2], the EC50 (read off the curve) is 0.9 nM.

B6: EGFRvIII/CD3 TandAb with EGFRvIII binding domain ABC471, domain order (iv) VH^EGFRvIII-VL^CD3-VH^CD3-VL^EGFRvIII (bispecific antibody, part only; not given: CD3 domain and linkers, not shown: small tags and cut ends)
chain, part: EVQLVQSGAEVKKPGESLKISCKGSGYSFNSYWIGWVRQMPGKGLEWMGIIYPGDSANRYSPSFQGQVTISADKSISTAYLQWSSLKASDTAMYYCARLGSSWTNDAFDIWGQGTLVTVSSSYELTQPPSVSVSPGQTARITCSGDYLPKQYAYWYQQKPGQAPVLVIYKDTERPSGIPERFSGSSSGTTVTLTISGVQAEDEADYYCQSVDSSHPSVVFGGGTKLTVL
Take B6: in experiment [1], the Cytotoxic potency EC50 is 3.1 nM and the cytotoxicity improvement factor relative to parental TandAb amounted to 69.8 fold. In experiment [2], this molecule gave an EC50 (read off the curve) of 0.6 nM.

B7: EGFRvIII/CD3 TandAb with EGFRvIII binding domain ABC470, domain order (i) VL^CD3(v64)-VH^EGFRvIII-VL^EGFRvIII-VH^CD3(v64) (bispecific antibody, part only; not given: CD3 v64 domain and linkers, not shown: small tags and cut ends)
chain, part: EVQLVQSGAEVKKPGESLKISCKGSGYSFNSYWIGWVRQMPGKGLEWMGIIYPGDSDTRYSPSFQGQVTISADKSISTAYLQWSSLKASDTAMYYCARLGSSWTNDAFDIWGQGTLVTVSSSYELTQPPSVSVSPGQTARITCSGDALDKQYAYWYQQKPGQAPVLVIYKDSERPSGIPERFSGSSSGTTVTLTISGVQAEDEADYYCQSVDSSETYVVFGGGTKLTVL
Regarding B7, in experiment [1], the Cytotoxic potency EC50 stood at 4 nM and the cytotoxicity improvement factor relative to parental TandAb stood at 6.8 fold. This molecule yielded an EC50 (read off the curve) in experiment [7] of 0.7 nM.

B8: EGFRvIII/CD3 TandAb with EGFRvIII binding domain ABC472, domain order (i) VL^CD3(v64)-VH^EGFRvIII-VL^EGFRvIII-VH^CD3(v64) (bispecific antibody, part only; not given: CD3 v64 domain and linkers, not shown: small tags and cut ends)
chain, part: EVQLVQSGAEVKKPGESLKISCKGSGYSFGYYWIGWVRQMPGKGLEWMGIIYPGDSHTRYSPSFQGQVTISADKSISTAYLQWSSLKASDTAMYYCARLGSSWTNDAFDIWGQGTLVTVSSSYELTQPPSVSVSPGQTARITCSGDALPKQYAYWYQQKPGQAPVLVIYKDTERPSGIPERFSGSSSGTTVTLTISGVQAEDEADYYCQSVDSSGTQVVFGGGTKLTVL
Consider B8, for which, in experiment [1], the Cytotoxic potency EC50 was 4.2 nM and the cytotoxicity improvement factor relative to parental TandAb came to 6.5 fold. In addition, the EC50 (read off the curve) in experiment [7] was 0.8 nM.
